Here are results for 3 molecules from PMC5841405 (2018).

First the molecules themselves.
B3: Hook3_(1–160) (domain or fragment)
chain: MFSVESLERAELCESLLTWIQTFNVDAPCQTVEDLTNGVVMAQVLQKIDPAYFDENWLNRIKTEVGDNWRLKISNLKKILKGILDYNHEILGQQINDFTLPDVNLIGEHSDAAELGRMLQLILGCAVNCEQKQEYIQAIMMMEESVQHVVMTAIQELMSK

For assay [1], the target named is T1, Spindly_(1–142) (human, UniProt Q96EA4-1 1-142).
T1 chain: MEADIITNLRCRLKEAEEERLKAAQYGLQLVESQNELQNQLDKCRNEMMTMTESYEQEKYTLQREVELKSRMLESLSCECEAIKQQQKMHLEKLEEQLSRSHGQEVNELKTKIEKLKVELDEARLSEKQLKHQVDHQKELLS
The experiment in a line: ITC; first site (KD1).

Assay [2] has as its target T1, Spindly_(1–142). The experiment in a line: ITC; second site (KD2). A general note: In ITC the heat of successive injections is recorded.
Assay [3] addresses T2, BICD2_(1–98) (human, UniProt Q8TD16-1 1-98).
T2 chain: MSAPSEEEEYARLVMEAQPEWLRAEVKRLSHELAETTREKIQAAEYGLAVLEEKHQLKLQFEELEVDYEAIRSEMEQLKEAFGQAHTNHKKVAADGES
The assay can be described thus: ITC; first site (KD1), 30°C.

The assay “Hook3_(1–160)” addresses B3. The assay can be described thus: ITC.
Assay [4] has as its target T2, BICD2_(1–98). The experiment in a line: ITC; second site (KD2), 30°C.
Assay [5] addresses MBP-LIC1FL (human). The assay can be described thus: ITC.
The target in assay [6] is MBP-LIC1FL (human). The assay can be described thus: ITC. This is another data set of the same source.
MBP-LIC1FL (human), sequence (chain, as listed by the source): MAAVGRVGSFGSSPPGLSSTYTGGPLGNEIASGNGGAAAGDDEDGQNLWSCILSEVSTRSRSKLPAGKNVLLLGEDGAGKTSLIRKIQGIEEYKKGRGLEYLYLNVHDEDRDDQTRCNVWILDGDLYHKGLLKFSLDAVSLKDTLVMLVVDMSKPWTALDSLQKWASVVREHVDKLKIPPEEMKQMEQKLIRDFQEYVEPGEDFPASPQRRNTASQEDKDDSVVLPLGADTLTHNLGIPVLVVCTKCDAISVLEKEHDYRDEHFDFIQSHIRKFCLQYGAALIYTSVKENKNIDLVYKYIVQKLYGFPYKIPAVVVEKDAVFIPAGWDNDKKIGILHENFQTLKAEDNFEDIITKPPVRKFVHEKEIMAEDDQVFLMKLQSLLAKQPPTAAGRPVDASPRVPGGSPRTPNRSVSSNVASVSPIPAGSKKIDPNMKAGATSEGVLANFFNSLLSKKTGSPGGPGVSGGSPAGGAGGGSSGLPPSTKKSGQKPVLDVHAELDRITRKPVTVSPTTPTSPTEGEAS

Read-outs that look alike come from different tables or passages of the source.

B1: LIC1_(433–458) (peptide)
chain: NMKAGATSEGVLANFFNSLLSKKTGS
Regarding B1, the dissociation constant Kd (in general, the equilibrium constant for the complex coming apart) with Spindly_(1–142) [1] turned out to be 3.6 µM; in the assay with Spindly_(1–142) [2], 7.6 µM; in the assay with BICD2_(1–98) [3], 1.5 µM; with Hook3_(1–160) it was 6.3 µM; with BICD2_(1–98) [4] it was 7.5 µM.

B2: Hook3_(1–160)A138D (domain or fragment)
chain: MFSVESLERAELCESLLTWIQTFNVDAPCQTVEDLTNGVVMAQVLQKIDPAYFDENWLNRIKTEVGDNWRLKISNLKKILKGILDYNHEILGQQINDFTLPDVNLIGEHSDAAELGRMLQLILGCAVNCEQKQEYIQDIMMMEESVQHVVMTAIQELMSK
Turning to B2, the Kd with MBP-LIC1FL [5] was 8.1 µM.

Take B3: binding with MBP-LIC1FL [6] was put at a Kd of 12.3 µM.
